Patent publication US20110190477A1 (G2 INFLAMMATION, published 2011)
No end group written: not given here. *: point of attachment. Biotin = O=C1N[C@H]2[C@H](CS[C@H]2CCCCC(=O)*)N1

How the values were obtained:
Assay in all cases: peptide ELISA, biotin peptide on streptavidin plate
[1] = target: T1, peptide 11 (12 mer from the 2nd extracellular loop of human C5aR) (human)
T1 construct: worked out from 22 12 mers offset by one over 173-205; also called peptide no; 11
T1 peptide: Biotin-SGSGPPKVLCGVDYSH
From the text: (§1) A set of 22 overlapping peptides (12 mers), each offset by 1 residue from the next, spanning the second extracellular loop (3rd extracellular domain) of human C5aR was synthesised (Mimotopes, Melbourne). Each peptide was made with a biotin group and 4-amino acid linker (SGSG) at its N-terminus. One peptide synthesised, no. 23, was a 33 mer, representing the full length of the 2nd extracellular loop of hC5aR (residues 173-205 from SEQ ID NO:37), also had biotin-SGSG at the N-terminus.
(§2) The experiment was conducted by binding the peptides to a 384-well streptavidin-coated plate then incubating the antibodies with the peptides and detecting bound antibody with an anti-mouse IgG conjugated to horse radish peroxidase (HRP) as follows. Each peptide was dissolved in 200 μl of 60% DMSO to a concentration of 10 mg/ml. Peptides were further diluted 1:1000 to a working strength of 10 μg/ml with PBS/Tween 20/azide solution (0.1% w/v sodium azide in PBS/0.05% Tween 20).
(§3) A 384 well streptavidin-coated plate (Nunc) was blocked with 20 μl of blocking buffer (1% w/v BSA in PBS) per well. The plate was washed 4 times with PBS/Tween20 buffer (0.1% v/v Tween 20 in PBS). 20 μl of diluted peptide solution was transferred into a well and the plate incubated for 1 hour at room temperature. After washing the plate 4 times (as above) 20 μl antibody (0.5, 1, 1.25, 2.5 or 5 μg/ml) was added to the well and the plate was incubated for 1 hour at 20° C. The plate was washed 4 times as above then 20 μlHRP-conjugated anti-mouse IgG (1:5000 dilution in PBS/Tween 20) was added to each well. After a 1 hour incubation at room temperature the plate was washed 3 times (as above) then twice with PBS to remove traces of Tween. The presence of peroxidase was detected by adding 20 μl of freshly prepared TMB Substrate reagent (BD Opt EIA) to each well and incubating at room temperature for 20 min. Finally the plate was read at 650 nm/450 nm.

[2] = target: T2, peptide 9 (12 mer from the 2nd extracellular loop of human C5aR) (human)
T2 construct: worked out from 22 12 mers offset by one over 173-205; also called peptide no
T2 peptide: Biotin-SGSGYFPPKVLCGVDY
From the text: as §1, §2, §3

[3] = target: T3, peptide 13 (12 mer from the 2nd extracellular loop of human C5aR) (human)
T3 construct: worked out from 22 12 mers offset by one over 173-205; also called peptide no; 13
T3 peptide: Biotin-SGSGKVLCGVDYSHDK
From the text: as §1, §2, §3

[4] = target: T4, peptide 19 (12 mer from the 2nd extracellular loop of human C5aR) (human)
T4 construct: worked out from 22 12 mers offset by one over 173-205; also called peptide no; 19
T4 peptide: Biotin-SGSGDYSHDKRRERAV
From the text: as §1, §2, §3

[5] = target: T5, peptide 16 (12 mer from the 2nd extracellular loop of human C5aR) (human)
T5 construct: worked out from 22 12 mers offset by one over 173-205; also called peptide no; 16
T5 peptide: Biotin-SGSGCGVDYSHDKRRE
From the text: as §1, §2, §3

[6] = target: T6, peptide 12 (12 mer from the 2nd extracellular loop of human C5aR) (human)
T6 construct: worked out from 22 12 mers offset by one over 173-205; also called peptide no; 12
T6 peptide: Biotin-SGSGPKVLCGVDYSHD
From the text: as §1, §2, §3

[7] = target: T7, peptide 21 (12 mer from the 2nd extracellular loop of human C5aR) (human)
T7 construct: worked out from 22 12 mers offset by one over 173-205; also called peptide no; 21
T7 peptide: Biotin-SGSGSHDKRRERAVAI
From the text: as §1, §2, §3

[8] = target: T8, peptide 15 (12 mer from the 2nd extracellular loop of human C5aR) (human)
T8 construct: worked out from 22 12 mers offset by one over 173-205; also called peptide no; 15
T8 peptide: Biotin-SGSGLCGVDYSHDKRR
From the text: as §1, §2, §3

Measured: binding result

B1: mouse anti-C5aR monoclonal antibody 7F3 (antibody, V domains shown)
VH: QVQLQQSGPELVKPGASVKISCKASGYAFSNSWMNWVKQRPGKGLEWIGRIYPGDGDTKYNGKFKGKATLTADKSSSTAYMQLSSLTSEDSAVYFCARFLLISTVTAVDYWGQGTTLTVSS
VL: DVVMTQSPLSLPVSLGNQASISCRSSQSLVHSNGNTYLHWYLQKPGQSPKLLIYKVSNRFSGVPDRFSGSGSGTDFSLKISRVEAEDLGVYFCSQSTLVPLTFGAGTKLELK
notes: Mouse monoclonal from hybridoma ECACC 00110609; also called m7F3; mouse 7F3
no binding: all assays above

B2: humanized anti-C5aR antibody hAb-Q (antibody, human IgG4 S228P, kappa)
light: DVVMTQSPLSLPVTLGEPASISCRSSQSLVHSNGNTYLHWYLQKPGQSPQLLIYKVSNRFSGVPDRFSGSGSGTDFTLKISRVEAEDVGVYFCSQSTLVPLTFGQGTKLEIKRTVAAPSVFIFPPSDEQLKSGTASVVCLLNNFYPREAKVQWKVDNALQSGNSQESVTEQDSKDSTYSLSSTLTLSKADYEKHKVYACEVTHQGLSSPVTKSFNRGEC
heavy: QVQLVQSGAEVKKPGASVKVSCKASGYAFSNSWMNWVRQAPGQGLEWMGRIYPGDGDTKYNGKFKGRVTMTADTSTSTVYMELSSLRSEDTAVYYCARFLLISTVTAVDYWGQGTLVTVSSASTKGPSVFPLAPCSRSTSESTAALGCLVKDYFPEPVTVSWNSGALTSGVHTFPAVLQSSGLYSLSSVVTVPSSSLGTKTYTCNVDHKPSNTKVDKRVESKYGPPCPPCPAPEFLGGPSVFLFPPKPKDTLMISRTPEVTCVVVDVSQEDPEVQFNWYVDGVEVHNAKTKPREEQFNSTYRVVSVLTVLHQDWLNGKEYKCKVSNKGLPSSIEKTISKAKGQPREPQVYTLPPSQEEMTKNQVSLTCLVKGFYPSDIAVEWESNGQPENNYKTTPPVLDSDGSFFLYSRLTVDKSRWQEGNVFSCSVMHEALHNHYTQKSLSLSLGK
notes: IgG4 with the Ser228Pro mutation; also called antibody Q; anti-C5aR ab
no binding: all assays above

B3: humanized anti-C5aR antibody hAb-J (antibody, human IgG4 S228P, kappa)
light: DVVMTQSPLSLPVTLGEPASISCRSSQSLVHSNGNTYLHWYLQKPGQSPQLLIYKVSNRFSGVPDRFSGSGSGTDFTLKISRVEAEDVGVYFCSQSTLVPLTFGQGTKLEIKTVAAPSVFIFPPSDEQLKSGTASVVCLLNNFYPREAKVQWKVDNALQSGNSQESVTEQDSKDSTYSLSSTLTLSKADYEKHKVYACEVTHQGLSSPVTKSFNRGEC
heavy: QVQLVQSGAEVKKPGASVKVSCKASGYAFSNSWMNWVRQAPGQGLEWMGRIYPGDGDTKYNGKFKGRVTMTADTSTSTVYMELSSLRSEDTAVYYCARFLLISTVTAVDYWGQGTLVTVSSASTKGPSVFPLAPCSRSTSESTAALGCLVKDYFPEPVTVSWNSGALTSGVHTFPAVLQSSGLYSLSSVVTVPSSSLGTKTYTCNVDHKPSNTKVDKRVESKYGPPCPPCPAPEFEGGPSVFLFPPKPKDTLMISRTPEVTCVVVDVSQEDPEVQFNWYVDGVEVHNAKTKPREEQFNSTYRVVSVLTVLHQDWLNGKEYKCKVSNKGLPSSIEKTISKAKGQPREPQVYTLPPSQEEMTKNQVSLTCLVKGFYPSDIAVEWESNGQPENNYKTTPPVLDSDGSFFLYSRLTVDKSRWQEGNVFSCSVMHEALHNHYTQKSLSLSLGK
notes: also called antibody J
no binding: all assays above
